Data taken from patent publication US20080118529A1.

Molecular target: recombinant human collagen XVIII fragment endostatin (Entremed, Inc) (human) (UniProt P39060)
Assay: ELISA; protein incubated with DXS500k or buffer immobilized, overlaid with tPA in 10 mM εACA

Tissue-type plasminogen activator (tPA, Actilyse, Boehringer-Ingelheim), sequence (P00750 36-562 limits assumed): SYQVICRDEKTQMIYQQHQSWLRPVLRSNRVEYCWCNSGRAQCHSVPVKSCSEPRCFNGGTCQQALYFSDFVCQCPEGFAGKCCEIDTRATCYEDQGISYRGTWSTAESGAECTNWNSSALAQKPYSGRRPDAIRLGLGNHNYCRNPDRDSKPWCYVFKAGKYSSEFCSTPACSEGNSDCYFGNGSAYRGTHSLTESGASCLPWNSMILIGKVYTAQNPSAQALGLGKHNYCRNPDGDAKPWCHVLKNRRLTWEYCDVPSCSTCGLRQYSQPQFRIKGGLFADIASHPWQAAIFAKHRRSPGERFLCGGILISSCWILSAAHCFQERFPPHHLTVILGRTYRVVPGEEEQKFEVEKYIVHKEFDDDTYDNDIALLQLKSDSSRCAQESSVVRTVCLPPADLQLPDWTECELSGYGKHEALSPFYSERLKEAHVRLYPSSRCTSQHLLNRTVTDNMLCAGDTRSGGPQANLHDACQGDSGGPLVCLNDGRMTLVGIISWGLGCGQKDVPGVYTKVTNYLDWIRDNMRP

Question: Which factor of increase in tPA binding (protein exposed to DXS500k against protein in buffer only) does the source give for “Tissue-type plasminogen activator (tPA, Actilyse, Boehringer-Ingelheim) (from UniProt P00750 36-562) (enzyme)” here?
Answer: 10.5 fold
